Measurements published in EP4721754A1 (Hangzhou Sciwind Biosciences Co., Ltd., dated 2026).
Numbered stars: 1 amine (or outer) side, 2 acyl side, 3 side chain; on linkers, the order of the positions; unused ones are H or OH. Bridge positions count the residues as written; N and C are the ends. Square brackets hold non-standard residues; d marks the D form. Primed or numbered codes have the meaning given here. Ends that are not written are not given here. * marks the point of attachment. C22 diacid′ = docosanedioic acid (C22 diacid) acyl; C20 diacid = O=C(O)CCCCCCCCCCCCCCCCCCC(=O)*; C18 diacid = O=C(O)CCCCCCCCCCCCCCCCC(=O)*; C16 diacid = O=C(O)CCCCCCCCCCCCCCC(=O)*; γGlu = O=C(O)[C@H](CCC(=O)[*:2])N[*:1]; βAsp = O=C(O)[C@H](CC(=O)[*:2])N[*:1]; Hyp = O=C(O)[C@@H]1C[C@@H](O)CN1; Inp′ = not defined here; AEEA = NCCOCCOCC(=O)O

T1: amylin receptor (hAMY3R) (human, UniProt P30988 25-474; O60896 24-148)
T1 sequence (looked up) 1: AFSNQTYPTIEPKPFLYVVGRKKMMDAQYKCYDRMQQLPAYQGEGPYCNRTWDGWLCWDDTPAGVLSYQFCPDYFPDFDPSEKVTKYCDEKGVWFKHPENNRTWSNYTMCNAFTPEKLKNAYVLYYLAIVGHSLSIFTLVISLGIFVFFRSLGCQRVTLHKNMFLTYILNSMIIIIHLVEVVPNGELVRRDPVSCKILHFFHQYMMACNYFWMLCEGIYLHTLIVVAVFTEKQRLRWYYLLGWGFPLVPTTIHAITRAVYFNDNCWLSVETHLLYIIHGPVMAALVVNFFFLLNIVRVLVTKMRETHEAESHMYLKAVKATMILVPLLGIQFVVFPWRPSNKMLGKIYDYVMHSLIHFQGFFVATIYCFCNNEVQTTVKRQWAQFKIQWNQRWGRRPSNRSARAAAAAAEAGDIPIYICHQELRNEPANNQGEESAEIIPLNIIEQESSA
T1 sequence (looked up) 2: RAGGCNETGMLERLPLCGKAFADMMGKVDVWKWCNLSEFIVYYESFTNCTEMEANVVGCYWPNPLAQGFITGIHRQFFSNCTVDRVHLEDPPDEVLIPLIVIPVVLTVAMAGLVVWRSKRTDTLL

T2: calcitonin receptor (hCTR) (human, UniProt P30988 25-474)
T2 sequence (looked up): T1 sequence (looked up) 1


Target: T1, amylin receptor (hAMY3R)
Assay: cell-based or functional assay

fold increase of agonistic activity against the amylin receptor, compared with M17	Binder
~70 fold	{C18 diacid-Inp′-AEEA-AEEA}-ASQLSTAVLGRLSDELHRLQDYPRTDVGSGSP-NH2 [M30]

Target: T1, amylin receptor (hAMY3R)
Assay: cell-based or functional assay
Remark: another data set of the same source

EC50, CRE-luciferase reporter in amylin receptor/CRE-luc CHO cells, 24 h	EC50, CRE-luciferase reporter in amylin receptor/CRE-luc CHO cells (incubation presumably 4 h, per paragraph 38)	EC50, CRE-luciferase reporter in amylin receptor/CRE-luc CHO cells (incubation presumably 24 h)	Binder
0.008 nM	–	–	{C18 diacid}-D[AEEA][AEEA]ASQLSTAVLGRLSDELHRLQDYPRTDVGSGSP-NH2 [M26]
–	9 pM	0.04 nM	{C20 diacid-βAsp-AEEA-AEEA}-KCNTATCATQRLADFLRHSSNNLKPILPPTNVGSNT[Hyp]-NH2 (disulfide 2-7 (inferred); ends not checked) [N2]
0.016 nM	–	–	{C18 diacid-γGlu}-ASQLSTAVLGRLSDELHRLQDYPRTDVGSGSP-NH2 (ends and bridges not checked) [M8]
0.063 nM	–	–	{C18 diacid-Inp′}-ASQLSTAVLGRLSDELHRLQDYPRTDVGSGSP-NH2 [M17]
0.016 nM	–	–	{C18 diacid}-EASQLSTAVLGRLSDELHRLQDYPRTDVGSGSP-NH2 [M11]
0.016 nM	–	–	{C20 diacid-AEEA-AEEA}-KCNTATCATQRLADFLRHSSNNLKPILPPTNVGSNT[Hyp]-NH2 (disulfide 2-7 (inferred); ends not checked) [N1]
–	1 pM	–	{C18 diacid-βAsp-AEEA-AEEA}-KCNTATCATQRLADFLRHSSNNLKPILPPTNVGSNT[Hyp]-NH2 (disulfide 2-7 (inferred); ends not checked) [N3]
0.001 nM	–	–	{C18 diacid-Inp′-AEEA-AEEA}-ASQLSTAVLGRLSDELHRLQDYPRTDVGSGSP-NH2 [M30]
0.033 nM	–	–	ASQLSTAVLGRLSQELHRLQDYPRTDVGSGSP-NH2 [M5]
0.017 nM	–	–	{C20 diacid-γGlu}-ASQLSTAVLGRLSDELHRLQDYPRTDVGSGSP-NH2 (ends and bridges not checked) [M6]
0.022 nM	–	–	{C22 diacid′-γGlu}-ASQLSTAVLGRLSDELHRLQDYPRTDVGSGSP-NH2 (ends and bridges not checked) [M7]
0.017 nM	–	–	ASQLSTAVLGRLSDELHRLQDYPRTDVGSGSP (not fully specified; N terminus: C20 diacid + βAsp+2 AEEAs) [M25]
0.044 nM	–	–	ASQLSTAVLGRLSDELHRLQDYPRTDVGSGSP (not fully specified; N terminus: C20 diacid + yGlu+8 AEEAs) [M21]
0.002 nM	–	–	ASQLSTAVLGRLSDELHRLQDYPRTDVGSGSP (N terminus: C18 diacid + Trx+2 AEEAs) [M28]
0.119 nM	–	–	ASQLSTAVLGRLSDELHRLQDYPRTDVGSGSP (N terminus: C18 diacid + Trx) [M15]
0.082 nM	–	–	ASQLSTAVLGRLSDELHRLQDYPRTDVGSGSP (not fully specified; N terminus: C20 diacid + Inp) [M16]
0.456 nM	–	–	ASQLSTAVLGRLSDELHRLQDYPRTDVGSGSP (not fully specified; N terminus: C20 diacid + Trx) [M14]
0.004 nM	–	–	ASQLSTAVLGRLSDELHRLQDYPRTDVGSGSP (not fully specified; N terminus: C20 diacid + Trx+2 AEEAs) [M27]
0.017 nM	–	–	ASQLSTAVLGRLSDELHRLQDYPRTDVGSGSP (not fully specified; N terminus: C20 diacid + βAsp) [M12]
0.069 nM	–	–	ASQLSTAVLGRLSDELHRLQDYPRTDVGSGSP (not fully specified; N terminus: C20 diacid + αGlu) [M10]
0.017 nM	–	–	ASQLSTAVLGRLSDELHRLQDYPRTDVGSGSP (not fully specified; N terminus: C20 diacid + αGlu+2 AEEAs) [M23]
0.006 nM	–	–	ASQLSTAVLGRLSDELHRLQDYPRTDVGSGSP (not fully specified; N terminus: C20 diacid + Inp+2 AEEAs) [M29]
0.015 nM	–	–	{C18 diacid-γGlu-AEEA-AEEA}-ASQLSTAVLGRLSDELHRLQDYPRTDVGSGSP-NH2 [M22]
0.007 nM	–	–	{C18 diacid}-E[AEEA][AEEA]ASQLSTAVLGRLSDELHRLQDYPRTDVGSGSP-NH2 [M24]
0.002 nM	–	–	{C16 diacid-γGlu}-ASQLSTAVLGRLSDELHRLQDYPRTDVGSGSP-NH2 (ends and bridges not checked) [M9]
0.016 nM	–	–	{C18 diacid}-DASQLSTAVLGRLSDELHRLQDYPRTDVGSGSP-NH2 [M13]

Target: T2, calcitonin receptor (hCTR)
Assay: cell-based or functional assay

EC50, CRE-luciferase reporter in calcitonin receptor/CRE-luc CHO cells, 24 h	Binder
0.024 nM	{C18 diacid}-D[AEEA][AEEA]ASQLSTAVLGRLSDELHRLQDYPRTDVGSGSP-NH2 [M26]
0.165 nM	{C18 diacid-γGlu}-ASQLSTAVLGRLSDELHRLQDYPRTDVGSGSP-NH2 (ends and bridges not checked) [M8]
0.259 nM	{C18 diacid-Inp′}-ASQLSTAVLGRLSDELHRLQDYPRTDVGSGSP-NH2 [M17]
0.071 nM	{C18 diacid}-EASQLSTAVLGRLSDELHRLQDYPRTDVGSGSP-NH2 [M11]
0.028 nM	{C20 diacid-γGlu}-ASQLSTAVLGRLSDELHRLQDYPRTDVGSGSP-NH2 (ends and bridges not checked) [M6]
0.194 nM	{C22 diacid′-γGlu}-ASQLSTAVLGRLSDELHRLQDYPRTDVGSGSP-NH2 (ends and bridges not checked) [M7]
0.138 nM	ASQLSTAVLGRLSDELHRLQDYPRTDVGSGSP (not fully specified; N terminus: C20 diacid + βAsp+2 AEEAs) [M25]
0.469 nM	ASQLSTAVLGRLSDELHRLQDYPRTDVGSGSP (N terminus: C18 diacid + Trx) [M15]
0.376 nM	ASQLSTAVLGRLSDELHRLQDYPRTDVGSGSP (not fully specified; N terminus: C20 diacid + Inp) [M16]
0.587 nM	ASQLSTAVLGRLSDELHRLQDYPRTDVGSGSP (not fully specified; N terminus: C20 diacid + Trx) [M14]
0.073 nM	ASQLSTAVLGRLSDELHRLQDYPRTDVGSGSP (not fully specified; N terminus: C20 diacid + βAsp) [M12]
0.069 nM	ASQLSTAVLGRLSDELHRLQDYPRTDVGSGSP (not fully specified; N terminus: C20 diacid + yGlu+2 AEEAs) [M18]
0.081 nM	{C18 diacid}-E[AEEA][AEEA]ASQLSTAVLGRLSDELHRLQDYPRTDVGSGSP-NH2 [M24]
0.12 nM	{C16 diacid-γGlu}-ASQLSTAVLGRLSDELHRLQDYPRTDVGSGSP-NH2 (ends and bridges not checked) [M9]
0.085 nM	{C18 diacid}-DASQLSTAVLGRLSDELHRLQDYPRTDVGSGSP-NH2 [M13]

Target: T1, amylin receptor (hAMY3R)
Assay: cell-based or functional assay
Remark: another data set of the same source

Fold change in activity against hAMY3R (benchmark D1)	hAMY3R EC50, CRE-luciferase reporter cells	Binder
0.571 fold	–	{C18 diacid-Inp′}-ASQLSTAVLGRLSDELHRLQDYPRTDVGSGSP-NH2 [M17]
2.25 fold	–	{C18 diacid}-EASQLSTAVLGRLSDELHRLQDYPRTDVGSGSP-NH2 [M11]
36 fold	–	{C18 diacid-Inp′-AEEA-AEEA}-ASQLSTAVLGRLSDELHRLQDYPRTDVGSGSP-NH2 [M30]
2.12 fold	–	{C20 diacid-γGlu}-ASQLSTAVLGRLSDELHRLQDYPRTDVGSGSP-NH2 (ends and bridges not checked) [M6]
2.12 fold	–	ASQLSTAVLGRLSDELHRLQDYPRTDVGSGSP (not fully specified; N terminus: C20 diacid + βAsp+2 AEEAs) [M25]
18 fold	–	ASQLSTAVLGRLSDELHRLQDYPRTDVGSGSP (N terminus: C18 diacid + Trx+2 AEEAs) [M28]
0.303 fold	–	ASQLSTAVLGRLSDELHRLQDYPRTDVGSGSP (N terminus: C18 diacid + Trx) [M15]
0.439 fold	–	ASQLSTAVLGRLSDELHRLQDYPRTDVGSGSP (not fully specified; N terminus: C20 diacid + Inp) [M16]
0.079 fold	–	ASQLSTAVLGRLSDELHRLQDYPRTDVGSGSP (not fully specified; N terminus: C20 diacid + Trx) [M14]
9 fold	–	ASQLSTAVLGRLSDELHRLQDYPRTDVGSGSP (not fully specified; N terminus: C20 diacid + Trx+2 AEEAs) [M27]
2.12 fold	–	ASQLSTAVLGRLSDELHRLQDYPRTDVGSGSP (not fully specified; N terminus: C20 diacid + βAsp) [M12]
2.25 fold	0.016 nM	ASQLSTAVLGRLSDELHRLQDYPRTDVGSGSP (not fully specified; N terminus: C20 diacid + yGlu+2 AEEAs) [M18]
6 fold	–	ASQLSTAVLGRLSDELHRLQDYPRTDVGSGSP (not fully specified; N terminus: C20 diacid + Inp+2 AEEAs) [M29]
5.14 fold	–	{C18 diacid}-E[AEEA][AEEA]ASQLSTAVLGRLSDELHRLQDYPRTDVGSGSP-NH2 [M24]

Target: T2, calcitonin receptor (hCTR)
Assay: cell-based or functional assay
Remark: another data set of the same source

Fold change in activity against hCTR (benchmark D1)	hCTR EC50, CRE-luciferase reporter cells	Binder
0.332 fold	–	{C18 diacid-Inp′}-ASQLSTAVLGRLSDELHRLQDYPRTDVGSGSP-NH2 [M17]
1.21 fold	–	{C18 diacid}-EASQLSTAVLGRLSDELHRLQDYPRTDVGSGSP-NH2 [M11]
0.848 fold	0.101 nM	{C18 diacid-Inp′-AEEA-AEEA}-ASQLSTAVLGRLSDELHRLQDYPRTDVGSGSP-NH2 [M30]
3.07 fold	–	{C20 diacid-γGlu}-ASQLSTAVLGRLSDELHRLQDYPRTDVGSGSP-NH2 (ends and bridges not checked) [M6]
0.623 fold	–	ASQLSTAVLGRLSDELHRLQDYPRTDVGSGSP (not fully specified; N terminus: C20 diacid + βAsp+2 AEEAs) [M25]
0.966 fold	0.089 nM	ASQLSTAVLGRLSDELHRLQDYPRTDVGSGSP (N terminus: C18 diacid + Trx+2 AEEAs) [M28]
0.183 fold	–	ASQLSTAVLGRLSDELHRLQDYPRTDVGSGSP (N terminus: C18 diacid + Trx) [M15]
0.229 fold	–	ASQLSTAVLGRLSDELHRLQDYPRTDVGSGSP (not fully specified; N terminus: C20 diacid + Inp) [M16]
0.147 fold	–	ASQLSTAVLGRLSDELHRLQDYPRTDVGSGSP (not fully specified; N terminus: C20 diacid + Trx) [M14]
0.161 fold	0.533 nM	ASQLSTAVLGRLSDELHRLQDYPRTDVGSGSP (not fully specified; N terminus: C20 diacid + Trx+2 AEEAs) [M27]
1.18 fold	–	ASQLSTAVLGRLSDELHRLQDYPRTDVGSGSP (not fully specified; N terminus: C20 diacid + βAsp) [M12]
1.25 fold	–	ASQLSTAVLGRLSDELHRLQDYPRTDVGSGSP (not fully specified; N terminus: C20 diacid + yGlu+2 AEEAs) [M18]
0.551 fold	0.156 nM	ASQLSTAVLGRLSDELHRLQDYPRTDVGSGSP (not fully specified; N terminus: C20 diacid + Inp+2 AEEAs) [M29]
1.06 fold	–	{C18 diacid}-E[AEEA][AEEA]ASQLSTAVLGRLSDELHRLQDYPRTDVGSGSP-NH2 [M24]
